{"source": "patent US6416987B1", "about": "“Mutants of thymidylate synthase and uses thereof” (Sloan Kettering Institute for Cancer Research, priority 1997, dated 2002)", "molecules": {"B1": {"name": "G52S: human TS mutant Gly52→Ser (protein)", "chain": "MPVAGSELPRRPLPPAAQERDAEPRPPHGELQYLGQIQHILRCGVRKDDRTSTGTLSVFGMQARYSLRDEFPLLTTKRVFWKGVLEELLWFIKGSTNAKELSSKGVKIWDANGSRDFLDSLGFSTREEGDLGPVYGFQWRHFGAEYRDMESDYSGQGVDQLQRVIDTIKTNPDDRRIIMCAWNPRDLPLMALPPCHALCQFYVVNSELSCQLYQRSGDMGLGVPFNIASYALLTYMIAHITGLKPGDFIHTLGDAHIYLNHIEPLKIQLQREPRPFPKLRILRKVGKIDDFKAEDFQIEGYNPHPTIKMEMAV"}, "B2": {"name": "F225S: human TS mutant Phe225→Ser (protein)", "chain": "MPVAGSELPRRPLPPAAQERDAEPRPPHGELQYLGQIQHILRCGVRKDDRTGTGTLSVFGMQARYSLRDEFPLLTTKRVFWKGVLEELLWFIKGSTNAKELSSKGVKIWDANGSRDFLDSLGFSTREEGDLGPVYGFQWRHFGAEYRDMESDYSGQGVDQLQRVIDTIKTNPDDRRIIMCAWNPRDLPLMALPPCHALCQFYVVNSELSCQLYQRSGDMGLGVPSNIASYALLTYMIAHITGLKPGDFIHTLGDAHIYLNHIEPLKIQLQREPRPFPKLRILRKVGKIDDFKAEDFQIEGYNPHPTIKMEMAV"}, "B3": {"name": "L221F: human TS mutant Leu221→Phe (protein)", "chain": "MPVAGSELPRRPLPPAAQERDAEPRPPHGELQYLGQIQHILRCGVRKDDRTGTGTLSVFGMQARYSLRDEFPLLTTKRVFWKGVLEELLWFIKGSTNAKELSSKGVKIWDANGSRDFLDSLGFSTREEGDLGPVYGFQWRHFGAEYRDMESDYSGQGVDQLQRVIDTIKTNPDDRRIIMCAWNPRDLPLMALPPCHALCQFYVVNSELSCQLYQRSGDMGFGVPFNIASYALLTYMIAHITGLKPGDFIHTLGDAHIYLNHIEPLKIQLQREPRPFPKLRILRKVGKIDDFKAEDFQIEGYNPHPTIKMEMAV"}, "B4": {"name": "K47E: human TS mutant Lys47→Glu (protein)", "chain": "MPVAGSELPRRPLPPAAQERDAEPRPPHGELQYLGQIQHILRCGVREDDRTGTGTLSVFGMQARYSLRDEFPLLTTKRVFWKGVLEELLWFIKGSTNAKELSSKGVKIWDANGSRDFLDSLGFSTREEGDLGPVYGFQWRHFGAEYRDMESDYSGQGVDQLQRVIDTIKTNPDDRRIIMCAWNPRDLPLMALPPCHALCQFYVVNSELSCQLYQRSGDMGLGVPFNIASYALLTYMIAHITGLKPGDFIHTLGDAHIYLNHIEPLKIQLQREPRPFPKLRILRKVGKIDDFKAEDFQIEGYNPHPTIKMEMAV"}, "B5": {"name": "L221I: human TS mutant Leu221→Ile (protein)", "chain": "MPVAGSELPRRPLPPAAQERDAEPRPPHGELQYLGQIQHILRCGVRKDDRTGTGTLSVFGMQARYSLRDEFPLLTTKRVFWKGVLEELLWFIKGSTNAKELSSKGVKIWDANGSRDFLDSLGFSTREEGDLGPVYGFQWRHFGAEYRDMESDYSGQGVDQLQRVIDTIKTNPDDRRIIMCAWNPRDLPLMALPPCHALCQFYVVNSELSCQLYQRSGDMGIGVPFNIASYALLTYMIAHITGLKPGDFIHTLGDAHIYLNHIEPLKIQLQREPRPFPKLRILRKVGKIDDFKAEDFQIEGYNPHPTIKMEMAV"}, "B6": {"name": "R50C: human TS mutant Arg50→Cys (protein)", "chain": "MPVAGSELPRRPLPPAAQERDAEPRPPHGELQYLGQIQHILRCGVRKDDCTGTGTLSVFGMQARYSLRDEFPLLTTKRVFWKGVLEELLWFIKGSTNAKELSSKGVKIWDANGSRDFLDSLGFSTREEGDLGPVYGFQWRHFGAEYRDMESDYSGQGVDQLQRVIDTIKTNPDDRRIIMCAWNPRDLPLMALPPCHALCQFYVVNSELSCQLYQRSGDMGLGVPFNIASYALLTYMIAHITGLKPGDFIHTLGDAHIYLNHIEPLKIQLQREPRPFPKLRILRKVGKIDDFKAEDFQIEGYNPHPTIKMEMAV"}, "B7": {"name": "F225Y: human TS mutant Phe225→Tyr (protein)", "chain": "MPVAGSELPRRPLPPAAQERDAEPRPPHGELQYLGQIQHILRCGVRKDDRTGTGTLSVFGMQARYSLRDEFPLLTTKRVFWKGVLEELLWFIKGSTNAKELSSKGVKIWDANGSRDFLDSLGFSTREEGDLGPVYGFQWRHFGAEYRDMESDYSGQGVDQLQRVIDTIKTNPDDRRIIMCAWNPRDLPLMALPPCHALCQFYVVNSELSCQLYQRSGDMGLGVPYNIASYALLTYMIAHITGLKPGDFIHTLGDAHIYLNHIEPLKIQLQREPRPFPKLRILRKVGKIDDFKAEDFQIEGYNPHPTIKMEMAV"}, "B8": {"name": "F225L: human TS mutant Phe225→Leu (protein)", "chain": "MPVAGSELPRRPLPPAAQERDAEPRPPHGELQYLGQIQHILRCGVRKDDRTGTGTLSVFGMQARYSLRDEFPLLTTKRVFWKGVLEELLWFIKGSTNAKELSSKGVKIWDANGSRDFLDSLGFSTREEGDLGPVYGFQWRHFGAEYRDMESDYSGQGVDQLQRVIDTIKTNPDDRRIIMCAWNPRDLPLMALPPCHALCQFYVVNSELSCQLYQRSGDMGLGVPLNIASYALLTYMIAHITGLKPGDFIHTLGDAHIYLNHIEPLKIQLQREPRPFPKLRILRKVGKIDDFKAEDFQIEGYNPHPTIKMEMAV"}, "B9": {"name": "T51A: human TS mutant Thr51→Ala (protein)", "chain": "MPVAGSELPRRPLPPAAQERDAEPRPPHGELQYLGQIQHILRCGVRKDDRAGTGTLSVFGMQARYSLRDEFPLLTTKRVFWKGVLEELLWFIKGSTNAKELSSKGVKIWDANGSRDFLDSLGFSTREEGDLGPVYGFQWRHFGAEYRDMESDYSGQGVDQLQRVIDTIKTNPDDRRIIMCAWNPRDLPLMALPPCHALCQFYVVNSELSCQLYQRSGDMGLGVPFNIASYALLTYMIAHITGLKPGDFIHTLGDAHIYLNHIEPLKIQLQREPRPFPKLRILRKVGKIDDFKAEDFQIEGYNPHPTIKMEMAV"}, "B10": {"name": "I108F: human TS mutant Ile108→Phe (protein)", "chain": "MPVAGSELPRRPLPPAAQERDAEPRPPHGELQYLGQIQHILRCGVRKDDRTGTGTLSVFGMQARYSLRDEFPLLTTKRVFWKGVLEELLWFIKGSTNAKELSSKGVKFWDANGSRDFLDSLGFSTREEGDLGPVYGFQWRHFGAEYRDMESDYSGQGVDQLQRVIDTIKTNPDDRRIIMCAWNPRDLPLMALPPCHALCQFYVVNSELSCQLYQRSGDMGLGVPFNIASYALLTYMIAHITGLKPGDFIHTLGDAHIYLNHIEPLKIQLQREPRPFPKLRILRKVGKIDDFKAEDFQIEGYNPHPTIKMEMAV"}, "B11": {"name": "L221A: human TS mutant Leu221→Ala (protein)", "chain": "MPVAGSELPRRPLPPAAQERDAEPRPPHGELQYLGQIQHILRCGVRKDDRTGTGTLSVFGMQARYSLRDEFPLLTTKRVFWKGVLEELLWFIKGSTNAKELSSKGVKIWDANGSRDFLDSLGFSTREEGDLGPVYGFQWRHFGAEYRDMESDYSGQGVDQLQRVIDTIKTNPDDRRIIMCAWNPRDLPLMALPPCHALCQFYVVNSELSCQLYQRSGDMGAGVPFNIASYALLTYMIAHITGLKPGDFIHTLGDAHIYLNHIEPLKIQLQREPRPFPKLRILRKVGKIDDFKAEDFQIEGYNPHPTIKMEMAV"}, "B12": {"name": "L221S: human TS mutant Leu221→Ser (protein)", "chain": "MPVAGSELPRRPLPPAAQERDAEPRPPHGELQYLGQIQHILRCGVRKDDRTGTGTLSVFGMQARYSLRDEFPLLTTKRVFWKGVLEELLWFIKGSTNAKELSSKGVKIWDANGSRDFLDSLGFSTREEGDLGPVYGFQWRHFGAEYRDMESDYSGQGVDQLQRVIDTIKTNPDDRRIIMCAWNPRDLPLMALPPCHALCQFYVVNSELSCQLYQRSGDMGSGVPFNIASYALLTYMIAHITGLKPGDFIHTLGDAHIYLNHIEPLKIQLQREPRPFPKLRILRKVGKIDDFKAEDFQIEGYNPHPTIKMEMAV"}, "B13": {"name": "D49N: human TS mutant Asp49→Asn (protein)", "chain": "MPVAGSELPRRPLPPAAQERDAEPRPPHGELQYLGQIQHILRCGVRKDNRTGTGTLSVFGMQARYSLRDEFPLLTTKRVFWKGVLEELLWFIKGSTNAKELSSKGVKIWDANGSRDFLDSLGFSTREEGDLGPVYGFQWRHFGAEYRDMESDYSGQGVDQLQRVIDTIKTNPDDRRIIMCAWNPRDLPLMALPPCHALCQFYVVNSELSCQLYQRSGDMGLGVPFNIASYALLTYMIAHITGLKPGDFIHTLGDAHIYLNHIEPLKIQLQREPRPFPKLRILRKVGKIDDFKAEDFQIEGYNPHPTIKMEMAV"}}, "system": "Mouse TS-negative cells (FSthy21)", "experiment": "Rescue of TS-negative cells by transfection of human TS cDNAs", "assay_type": "cell-based", "settings": "for TS catalytic function / complementation of growth of TS-negative cells: selective medium lacking thymidine; for FM3A TS cells surviving by transfection: selective medium without thymidine", "from_the_text": "Mouse TS-negative cells (FSthy21) were transfected with a plasmid (pcDNA3hTS*) encoding wild-type or a various mutant human TS enzyme by standard DOTAP transfection procedures. The host cells are deficient in TS, which are unable to survive without exogenous thymidine. […] In contrast, cells were unable to survive with transfection of other 11 human TS variants. For each surviving transfectant, at least 12 individual clones were isolated by soft agar or limiting dilution in 96-well plates. Those clones were expanded to cell lines by growth in normal media. Three cell clones for each transfectant were randomly selected for drug sensitivity assay.", "note": "Entries after “also recorded” stand apart in the source; their conditions may differ."}
{"molecule": "B1", "values": [{"measurement": "TS catalytic function / complementation of growth of TS-negative cells", "value": "able to complement growth; also recorded: retain TS catalytic function; also recorded: able to allow growth"}, {"measurement": "FM3A TS cells surviving by transfection", "value": "yes"}]}
{"molecule": "B2", "values": [{"measurement": "TS catalytic function / complementation of growth of TS-negative cells", "value": "severely diminished TS catalytic activity"}, {"measurement": "FM3A TS cells surviving by transfection", "value": "no"}]}
{"molecule": "B3", "values": [{"measurement": "TS catalytic function / complementation of growth of TS-negative cells", "value": "inactive"}, {"measurement": "FM3A TS cells surviving by transfection", "value": "no"}]}
{"molecule": "B4", "values": [{"measurement": "TS catalytic function / complementation of growth of TS-negative cells", "value": "able to complement growth; also recorded: retain TS catalytic function; also recorded: able to allow growth"}, {"measurement": "FM3A TS cells surviving by transfection", "value": "yes"}]}
{"molecule": "B5", "values": [{"measurement": "TS catalytic function / complementation of growth of TS-negative cells", "value": "able to complement growth"}, {"measurement": "FM3A TS cells surviving by transfection", "value": "yes"}]}
{"molecule": "B6", "values": [{"measurement": "TS catalytic function / complementation of growth of TS-negative cells", "value": "catalytically inactive"}, {"measurement": "FM3A TS cells surviving by transfection", "value": "no"}]}
{"molecule": "B7", "values": [{"measurement": "TS catalytic function / complementation of growth of TS-negative cells", "value": "able to complement growth; also recorded: active enzymes"}, {"measurement": "FM3A TS cells surviving by transfection", "value": "yes"}]}
{"molecule": "B8", "values": [{"measurement": "TS catalytic function / complementation of growth of TS-negative cells", "value": "able to complement growth; also recorded: active enzymes"}, {"measurement": "FM3A TS cells surviving by transfection", "value": "yes"}]}
{"molecule": "B9", "values": [{"measurement": "TS catalytic function / complementation of growth of TS-negative cells", "value": "not tolerated"}, {"measurement": "FM3A TS cells surviving by transfection", "value": "no"}]}
{"molecule": "B10", "values": [{"measurement": "TS catalytic function / complementation of growth of TS-negative cells", "value": "able to complement growth; also recorded: functional"}, {"measurement": "FM3A TS cells surviving by transfection", "value": "yes"}]}
{"molecule": "B11", "values": [{"measurement": "TS catalytic function / complementation of growth of TS-negative cells", "value": "able to complement growth"}, {"measurement": "FM3A TS cells surviving by transfection", "value": "yes"}]}
{"molecule": "B12", "values": [{"measurement": "TS catalytic function / complementation of growth of TS-negative cells", "value": "able to complement growth"}, {"measurement": "FM3A TS cells surviving by transfection", "value": "yes"}]}
{"molecule": "B13", "values": [{"measurement": "TS catalytic function / complementation of growth of TS-negative cells", "value": "not tolerated"}, {"measurement": "FM3A TS cells surviving by transfection", "value": "no"}]}
